Experimental data: patent publication US20110111406A1 (published 2011)
Residue numbers refer to the chain shown, from its start. Read-outs that look alike come from different tables or passages of the source.

T1: recombinant soluble human IL-6 receptor (SR344) (human, UniProt P08887 20-344)
T1 construct: In the 'membrane-type IL-6 receptor' Biacore assays the same SR344 was biotinylated and immobilized via streptavidin; also called soluble IL-6 receptor; membrane-type IL-6 receptor (as biotinylated SR344 immobilized on the sensor chip)
T1 sequence (looked up): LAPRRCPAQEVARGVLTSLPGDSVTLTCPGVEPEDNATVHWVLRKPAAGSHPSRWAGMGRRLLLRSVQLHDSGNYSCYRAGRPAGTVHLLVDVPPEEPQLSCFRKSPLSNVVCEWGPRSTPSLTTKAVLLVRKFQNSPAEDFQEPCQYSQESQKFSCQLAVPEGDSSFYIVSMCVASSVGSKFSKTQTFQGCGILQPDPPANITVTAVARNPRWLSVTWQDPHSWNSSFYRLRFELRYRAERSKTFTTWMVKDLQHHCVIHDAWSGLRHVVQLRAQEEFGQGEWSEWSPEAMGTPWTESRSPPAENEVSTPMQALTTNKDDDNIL

T2: soluble mouse IL-31 receptor (mouse, UniProt Q8K5B1 19-499)
T2 construct: Soluble form
T2 sequence (looked up): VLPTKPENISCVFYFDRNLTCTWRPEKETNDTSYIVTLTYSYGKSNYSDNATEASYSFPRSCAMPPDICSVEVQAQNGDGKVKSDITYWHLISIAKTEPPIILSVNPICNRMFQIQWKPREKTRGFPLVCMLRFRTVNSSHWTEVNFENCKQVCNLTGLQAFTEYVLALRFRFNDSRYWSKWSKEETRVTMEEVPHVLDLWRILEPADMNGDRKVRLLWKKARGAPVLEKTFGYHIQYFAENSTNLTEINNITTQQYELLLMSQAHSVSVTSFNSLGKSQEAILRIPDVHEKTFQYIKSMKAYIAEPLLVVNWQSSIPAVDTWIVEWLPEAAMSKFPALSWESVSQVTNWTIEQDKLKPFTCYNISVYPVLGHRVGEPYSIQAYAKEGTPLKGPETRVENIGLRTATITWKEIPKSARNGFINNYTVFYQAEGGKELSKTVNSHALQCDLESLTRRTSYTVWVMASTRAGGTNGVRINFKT

B1: CLH5/L73 (antibody, IgG1, V domains shown)
VH: QVQLQESGPGLVKPSETLSLTCAVSGYSISHDHAWSWVRQPPGEGLEWIGHISYSGITNYNPHLKGRVTISRDTSKNQFSLKLSSVTAADTAAYYCARFLARITAHDHWGEGTLVTVSS
VL: DIQMTQSPSSLSASVGDSVTITCQASQHISSHLNWYQQKPGKAPELLIYYGSHLHSGVPSRFSGSGSGTDFTFTISSLEAEDAATYYCGQGNRLPYTFGQGTKVEIE
B2: H170/L82 (antibody, IgG1, V domains shown)
VH: B1 VH with Y27H, D32H, W35H, H51Y, N59H, F99V, H106M
VL: B1 VL with H28D
notes: expressed and purified as IgG (IgG1); also called H170/L82-IgG1
B3: Anti-IL31R clone 1 (antibody, human IgG1, lambda, V domains shown)
VH: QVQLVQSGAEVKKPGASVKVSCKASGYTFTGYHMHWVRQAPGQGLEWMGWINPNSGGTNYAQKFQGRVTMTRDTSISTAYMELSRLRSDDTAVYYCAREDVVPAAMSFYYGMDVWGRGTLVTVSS
VL: LPVLTQPPSVSVAPGQTARITCGGNNIGSKTVYWYQQEPGQAPVLVVYDDTDRPAGIPERFSGANSGNTATLTISRVEAGDEADYYCQVWDSSTDHGVFGGGTKLTVLG

Legend:
[1] = molecular target: T1, recombinant soluble human IL-6 receptor …; assay: Biacore T100, SR344 as analyte; KD(pH5.8)/KD(pH7.4) compared with WT
Protocol: (§1) Kinetic analyses of antigen-antibody reactions at pH 5.8 and pH 7.4 were carried out using Biacore T100 (GE Healthcare) on the four antibodies: humanized PM1 antibody (WT) and H3pI/L73, CLH5/L73, and H170/L82 produced in Examples 2 and 4 (buffer: 10 mM MES (pH 7.4 or pH 5.8), 150 mM NaCl, and 0.05% Tween 20). Various antibodies were bound onto a sensor chip immobilized with recomb-protein A/G (Pierce) by amine coupling. SR344 adjusted to concentrations of 9.8 to 400 nM was injected to the chip as an analyte. […] All the measurements were carried out at 37° C. Association rate constants kₐ (1/Ms) and dissociation rate constants kd (1/s) were calculated using Biacore T100 Evaluation Software (GE Healthcare), and dissociation constants KD (M) were calculated on the basis of those values (Table 5). Moreover, the ratio of the affinities at pH 5.8 and pH 7.4 were calculated for each clone to evaluate pH-dependent binding. All the measurements were carried out at 37° C.

[2] = molecular target: T1, recombinant soluble human IL-6 receptor …; assay: Biacore T100, integrated RU of SR344 bound over ten cycles of pH 7.4 binding and pH 5.8 exposure, 37C
Source text: Biacore (GE Healthcare) was used to evaluate that the antibodies binding at pH 7.4 and dissociating at pH 5.8 were able to bind to the antigen multiple times. The antibody to be evaluated was bound to a recomb-protein A/G (Pierce)-immobilized sensor chip by the amine coupling method, and a mobile phase of pH 7.4 was allowed to flow (step 1). SR344 solution adjusted to pH 7.4 was then allowed to flow as an analyte to bind SR344 to the antibody at pH 7.4 (step 2). This binding at pH 7.4 mimics the antigen binding in plasma. Subsequently, buffer adjusted to pH 5.8 alone (not containing SR344) was added as an analyte to expose the antigen bound to the antibody to acidic conditions (step 3). This dissociation at pH 5.8 mimics the binding state of antigen-antibody complexes in endosomes. Subsequently, step 2 was repeated. This mimics the rebinding of antibody that has been returned to plasma by FcRn to a new antigen. Subsequently, […] was repeated to expose the antibody-antigen complex to acidic conditions.
The produced pH-dependent binding clones described above were analyzed using Biacore T100 (GE Healthcare) for their ability to bind to the antigen SR344 multipe times at pH 5.8 and pH 7.4. More specifically, the analysis was carried out as follows. All the measurements were carried out at 37° C. […]

[3] = molecular target: T1, recombinant soluble human IL-6 receptor …; assay: Biacore T100, antibody captured on protein A/G, SR344 as analyte, 37C; ratio of KD at pH 5.8 to pH 7.4
Protocol: as §1

[4] = molecular target: T1, recombinant soluble human IL-6 receptor …; assay: as above; remark: listed apart in the source
Protocol: (§2) Kinetic analysis of antigen-antibody reactions at pH 7.4 and pH 5.8 was carried out using Biacore T100 (GE Healthcare) for the four types of antibodies prepared: WT-IgG1, H54/L28-IgG1, H170/L82-IgG1, and Fv4-IgG1(buffer: 10 mM MES (pH 7.4 or pH 5.8), 150 mM NaCl, 0.05% Surfactant-P20). The antibodies were bound to a sensor chip on which recomb-protein A/G (Pierce) was immobilized by amine coupling, and SR344 adjusted to an appropriate concentration was injected therein as an analyte. The association with and dissociation from SR344 of each type of antibody were observed on a real-time basis. All the measurements were carried out at 37° C. Association rate constants kₐ (1/Ms) and dissociation rate constants kd (1/s) were calculated using Biacore T100 Evaluation Software (GE Healthcare), and dissociation constants KD (M) were calculated based on those values (Table 17).

[5] = molecular target: T1, recombinant soluble human IL-6 receptor …; assay: Biacore T100, antibody captured on protein A/G, SR344 as analyte, 37C; ratio of kd at pH 5.8 to pH 7.4
Protocol: as §2

[6] = molecular target: T2, soluble mouse IL-31 receptor; assay: Biacore T100, soluble mouse IL-31 receptor as analyte; KD(pH 5.5)/KD(pH 7.4) compared with Anti-IL31R wild type
Protocol: Kinetic analysis of antigen-antibody reactions at pH 5.5 and pH 7.4 was carried out using Biacore T100 (GE Healthcare) for the two types of antibodies prepared as mentioned above: Anti-IL31R wild type and Anti-IL31R clone 1 (buffer: DPBS(−) (pH 7.4 or pH 5.5), 150 mM NaCl, 0.01% Tween 20, 0.02% NaN₃). The antibodies were bound to a sensor chip on which recomb-protein A/G (Pierce) was immobilized by amine coupling, and then the soluble mouse IL-31 receptor (prepared according to the method described in WO 2007/142325) adjusted to an appropriate concentration was injected therein as an analyte. All the measurements were carried out at 25° C. Association rate constants kₐ (1/Ms) and dissociation rate constants kd (1/s) were calculated using Biacore T100 Evaluation Software (GE Healthcare), and dissociation constants KD (M) were calculated based on those values (Table 16). Furthermore, the ratio of affinity at pH 5.5 and pH 7.4 was calculated for each clone to evaluate the pH-dependent binding.

| Binder | pH-dependent binding (affinity ratio) relative to WT [1] | total amount of antigen bound over ten cycles relative to WT [2] | KD(pH5.8)/KD(pH7.4) [3] | KD(pH5.8)/KD(pH7.4) [4] | kd(pH 5.8)/kd(pH 7.4) [5] | pH-dependent binding ability relative to WT [6] |
| --- | --- | --- | --- | --- | --- | --- |
| B1 | 15 times | ~4 times | 66.1 | – | – | – |
| B2 | 15 times | ~4 times | 394 | 61.9 | 11.4 | – |
| B3 | – | – | – | – | – | ~300 times |
